Data as given in US5610063A, “cDNA for α-N-acetyl-galactosaminidase from Gallus domesticus” (Curators of the University of Missouri, priority 1995, dated 1997).
Residue numbers refer to the chain shown, from its start. “Also recorded” adds a separate entry of the source.

Experiments:
[1] = target: T1, Gallus N-acetyl-α-D-galactosaminidase (Gallus gallus, UniProt Q90744); test: Kinetic parameters (Km, turnover number) of Gallus enzyme; type: biochemical, Gallus domesticus; conditions: Example 1 preparation
T1 construct: the cDNA clone corresponds to the region of the mRNA encoding the mature polypeptide for the chicken α-N-acetyl-galactosaminidase; from tissue; host or cells: chicken liver
T1 sequence (Q90744 1-405 S162A): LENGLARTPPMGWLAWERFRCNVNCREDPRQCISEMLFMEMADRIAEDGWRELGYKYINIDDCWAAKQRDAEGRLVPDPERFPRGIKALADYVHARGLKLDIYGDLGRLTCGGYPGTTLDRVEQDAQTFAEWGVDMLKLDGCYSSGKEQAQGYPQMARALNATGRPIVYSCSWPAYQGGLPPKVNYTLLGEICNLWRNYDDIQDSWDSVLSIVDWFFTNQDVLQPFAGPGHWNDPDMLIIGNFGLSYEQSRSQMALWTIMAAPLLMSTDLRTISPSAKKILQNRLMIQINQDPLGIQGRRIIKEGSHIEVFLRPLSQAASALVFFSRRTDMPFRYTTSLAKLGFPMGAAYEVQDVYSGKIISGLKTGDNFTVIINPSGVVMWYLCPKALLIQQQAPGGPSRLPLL
Procedure: Enzymatic activity was quantitated during the purification by measuring production of p-nitrophenol (PNP) from PNP-N-acetyl-α-D-galactosaminide or o-nitrophenol (ONP) from ONP-N-acetyl-α-D-galactosaminide. Enzyme aliquots were incubated in 200 μl of 50 mM Na citrate+1 mg/ml BSA+1.0 mM PNP-N-acetyl-α-D-galactosaminide, pH 3.5, at 37° C. The reactions were quenched with 1.0 ml of 0.25M Na2 CO3 and the OD 405 nm was measured. One unit of activity was defined as 1.0 μmole of substrate hydrolyzed per minute.

[2] = target: T1, Gallus N-acetyl-α-D-galactosaminidase; test: Substrate specificity (relative activity); type: biochemical, Gallus domesticus; conditions: % of enzyme activity on the corresponding conjugate, 2.5 mM PNP conjugates, pH 3.5
[3] = system: human α-N-acetyl-galactosaminidase; conditions: human enzyme; Schram et al, 1977; cited from earlier work
[4] = target: T2, Gallus α-N-acetyl-galactosaminidase (Gallus gallus, UniProt Q90744); test: Affinity ligand chromatography; type: binding, Gallus domesticus; conditions: Affi-Gel 10 coupled ligand
T2 construct: mature glycoprotein, about 145 kDa oligomer
T2 sequence (Q90744 1-405 S162A): T1 sequence (Q90744 1-405 S162A)
Procedure: Synthesis of affinity ligand and resin: .xi.-aminohexanoyl-α-D-galactopyranosYlamine was synthesized by a modification of the method of Harpaz et al. (1974). Purity of the product was determined by thin-layer chromatography and mass spectroscopy. The ligand was coupled to Affi-Gel™ 10 per the manufacturer's directions. Coupling efficiencies of 80%.
Step 5. After dialysis, the pool was applied to a 1.5×20 cm .xi.-aminohexanoyl-α-D-galactopyranosylamine Affi-Gel™ 10 column equilibrated in 50 mM Na acetate+0.1% Triton X-100+0.01% NAN3, pH 5.0. The column was washed with 90 mls of equilibration buffer, and the enzyme was eluted with 50 mM NaH2 PO4 +100 mM methyl-α-D-galactopyranoside+0.1% Triton X-100+0.01% NAN3, pH 7.0. Active fractions were pooled, concentrated, and dialyzed into 50 mM Na acetate+0.1% Triton X-100+0.01% NaN3, pH 5.0.
7. Load the filtrate onto a 2.5×15.0 cm ε-amino-hexanoyl-α-D-galactopyranosylamine Affi-Gel™ 10 column equilibrated with 10 mM NaH2 PO4, pH 5.5 at 4° C. Wash the column with 300 ml of 75 mM NaH2 PO4 pH 5.5. Elute the enzyme from the column with 300 ml (range 50 to 500) of 50 mM NaH2 PO4 +100 mM D-(+)-Galactose, pH 7.0.

pI by chromatofocusing = type: physicochemical; conditions: Example 1 preparation
resorufin-labeled casein = test: Endoprotease (resorufin-labeled casein) assay; type: biochemical; conditions: for endoprotease activity, resorufin-labeled casein assay: sensitivity limit 0.01 trypsin BAEE units
Procedure: (§1) Endoprotease assays were performed by an adaption of the resorufin-labeled casein assay of Twining (Twining, 1984). The limit of sensitivity of this assay was determined using a trypsin standard. Stable, concentrated, detergent-free enzyme was prepared as described herein. Activity against the blood group antigen on erythrocytes was determined by incubating enzyme at 24°-37° C. for 2-8 hours with either erythrocytes equilibrated in 25 mM Na citrate+50 mM NaH2 PO4 +80 mM NaCl, pH 5.6-5.8, or in 2.5-5 mM Na citrate+300 mM glycine, pH 5.4-5.6. The cells were washed with phosphate buffered saline, pH 7.0, then incubated with varying dilutions of polyclonal or monoclonal antibody, as for example anti-A for A erythrocytes. Other antibodies and buffers could be used for other blood groups as is known in the art. Hemagglutination was performed and titer scored by standard methods (Bryant, 1982).

human A2 erythrocytes [5] = test: Erythrocyte indices, hemolysis and morphology after enzyme treatment; type: cell-based
pH optimum = type: biochemical; conditions: for pH optimum: pH 2.0 to 8.0 tested
Procedure: The pH optima was determined by incubating aliquots of the enzyme in 40 mM Na citrate+40 mM NaH2 PO4 +1 mg/ml BSA+2.5 mM PNP-N-acetyl-α-D-galactosamide, pH 2.0 to 8.0. The ionic strength optimum was determined by incubating aliquots of the enzyme in 2.5 mM Na citrate+1 mg/ml BSA+2.5 mM PNP-N-acetyl-α-D-galactoside+0 to 1.0M NaCl, pH 3.5 and 6.0. The Kms for ONP- and PNP-N-acetyl-α-D-galactosaminide were determined by varying the substrate concentration in 50 mM Na citrate+1 mg/ml BSA, pH 3.5. The native molecular weight was determined by applying a concentrated portion of the enzyme to a 1×45 cm Sephacryl S-200 column equilibrated in 25 mM Na citrate+200 mM NaCl, pH 6.0. SDS polyacrylamide electrophoresis (SDS-PAGE) was performed according to the method of Laemmli and the protein bands developed with Coomassie R-250 (Laemmli, 1970). Amino acid composition was determined on a Beckman amino acid analyzer (Moore et al., 1954).

[6] = Aminopeptidase assay with p-nitroaniline (PNA) substrates; type: biochemical; conditions: for Aminopeptidase activity: five PNA substrates
Procedure: Aminopeptidase assays were performed by incubating aliquots of enzyme with 2.5 mM of various p-nitroaniline (PNA) substrates in 50 mM Na citrate+50 mM NaH2 PO4 +0.1% Triton X-100, pH 5.0 to 8.0 (Macfarlane et al., 1988). The reactions were incubated at 37° C., quenched with 1.0 ml of 0.25M Na2 CO3, and the OD 405 nm was determined. One unit of aminopeptidase activity was defined as 1.0 μmole of PNA hydrolyzed per minute.

[7] = Hata et al., 1992; cited from earlier work
Ionic strength optimum = type: biochemical
[8] = Storage stability at 4° C.; type: physicochemical
human A2 erythrocytes [9] = test: Removal of blood group A epitope from A2 erythrocytes (hemagglutination); type: cell-based; conditions: much higher enzyme concentrations are required
Procedure: as §1
The enzyme was also tested on human A2 erythrocytes. Removal of the terminal N-acetyl-α-D-galactosaminyl residue from the blood group A epitope, {galNAc(α1-3) gal(β1-R) {fuc(α1-2)} glueNAc(β1-R)}, was achieved by the enzyme as shown in FIG. 8. […] Incubation at 37° C. was necessary because dilute concentrations of glycosidase were used.

[10] = Selectivity / other glycosidase activities of the enzyme preparation; type: biochemical
[11] = preparations isolated by the invention

Which “Km (in words)” value [1] does the source give for `O=[N+]([O-])c1ccc(O[C@H]2O[C@H](CO)[C@H](O)[C@H](O)[C@H]2O)cc1` [PNP-α-D-galactopyranoside] here?
The value was “high Km”.

And the “Relative Activity” value ([2]; Table IV, Example 1 preparation)?
The value was 12.74%.

And the “Relative Activity” value ([2]; Table VI, improved purification (Example 2))?
The value was 15.79%.

And the Km [3]?
Its Km is 1000 µM.

Which “active site specific affinity ligand (in words)” value [4] does the source give for `NCCCCCC(=O)N[C@H]1O[C@H](CO)[C@H](O)[C@H](O)[C@H]1O` [.xi.-aminohexanoyl-α-D-galactopyranosylamine] here?
The value was “efficient active site specific affinity ligand”.

B1: α-N-acetyl-galactosaminidase: purified exoglycosidase [EC 3.2.1.49] derived from Gallus domesticus (chicken) liver, degrades human blood group A2 epitope (protein, UniProt Q90744 1-405, looked up)
Alpha-N-acetylgalactosaminidas …: T1 sequence (Q90744 1-405 S162A) with A162S
Which “pI (approximate mean)” value (pI by chromatofocusing) does the source give for B1 here?
Its value is ~8.15.

What about the “"trypsin-like activity"” value (resorufin-labeled casein; Example 1 preparation) of the same molecule?
The value was “less than 0.78 ng per mg of pure enzyme”.

And the “proteolytic activity (in words)” value (resorufin-labeled casein; Example 1 preparation)?
The value was “No proteolytic activity was detected”.

What about the “endoprotease activity, resorufin-labeled casein assay” value (resorufin-labeled casein; Example 1 preparation) of the same molecule?
The value was ≤ 0.01 BAEE units/mg enzyme.

What about the “"trypsin-like activity"” value (resorufin-labeled casein; Example 2 preparation) of the same molecule?
The value was “less than 0.78 ng per mg of pure enzyme”.

What about the “proteolytic activity (in words)” value (resorufin-labeled casein; Example 2 preparation) of the same molecule?
Its value is “no measurable protease activity; also recorded: No proteolytic activity was detected”.

And the “endoprotease activity, resorufin-labeled casein assay” value (resorufin-labeled casein; Example 2 preparation)?
Its value is “less than 0.01 BAEE units/mg enzyme”.

What about the “endoprotease activity (in words)” value (resorufin-labeled casein; [11]) of the same molecule?
Its value is “lacked detectable aminopeptidase and endoprotease activities”.

What about the “morphology of treated cells” value (human A2 erythrocytes [5]) of the same molecule?
Its value is “mixed population of normocytes and spiculated cells”.

And the “change in erythrocyte mean corpuscular volume” value (human A2 erythrocytes [5]; treated human A2 erythrocytes)?
The value was “insignificant change”.

And the “change in mean corpuscular hemoglobin” value (human A2 erythrocytes [5]; treated human A2 erythrocytes)?
The value was “insignificant change”.

What about the “change in mean corpuscular hemoglobin concentration” value (human A2 erythrocytes [5]; treated human A2 erythrocytes) of the same molecule?
The value was “insignificant change”.

And the visible hemolysis (human A2 erythrocytes [5]; treated human A2 erythrocytes)?
Its visible hemolysis is “little visible hemolysis”.

What about the “pH range of activity (in words)” value (pH optimum; Example 1 preparation) of the same molecule?
The value was “broad pH range”.

And the pH optimum (pH optimum; Example 1 preparation)?
Its pH optimum is 3.7.

What about the “pH range of activity (in words)” value (pH optimum; Example 2 preparation) of the same molecule?
Its value is “broad pH range”.

What about the pH optimum (pH optimum; Example 2 preparation) of the same molecule?
Its pH optimum is 3.4.

And the Aminopeptidase activity ([6]; Example 1 preparation, below limits of detection)?
Its Aminopeptidase activity is ≤ 0.05 units/mg enzyme.

What about the Aminopeptidase activity ([6]; Example 2 preparation) of the same molecule?
Its Aminopeptidase activity is “less than 0.05 units per mg”.

And the “aminopeptidase activity (in words)” value [6, 11]?
The value was “lacked detectable aminopeptidase”.

And the “degradation of the human blood group A epitope” value [7]?
Its value is “degrades the human blood group A epitope”.

And the “effect of ionic strength on activity” value (Ionic strength optimum; Example 1 preparation, high or low ionic strengths, pH 3.7)?
Its value is “not strongly inhibited”.

And the “effect of ionic strength on activity” value (Ionic strength optimum; Example 2 preparation, high / increasing ionic strength (pH 3.5))?
The value was “unaffected by increasing ionic strength; also recorded: not significantly affected”.

What about the “loss of activity on storage” value ([8]; Example 1 preparation, several months) of the same molecule?
The value was “less than 10%”.

And the “loss of activity on storage” value ([8]; Example 2 preparation, six months)?
Its value is “less than 5%”.

And the “stability (in words)” value ([8]; purified enzyme)?
Its value is “stable at 4 °C”.

And the “deantigenation at lower temperatures and shorter incubations” value (human A2 erythrocytes [9])?
The value was “achieved deantigenation”.

What about the “selectivity (in words)” value ([10]; for PNP-N-acetyl-α-D-galactosaminide) of the same molecule?
Its value is “highly selective”.

And the “other glycosidase activities (in words)” value ([10]; preparations of the inventive isolation methods)?
The value was “lack other detectable glycosidase activities”.
